Data as given in publication PMC8993412 (Journal of Molecular Biology, 2022).

Molecular target: SARS-CoV-2 nucleocapsid (N) protein, full-length (recombinant) (SARS-CoV-2, reference, UniProt P0DTC9)
Assay: ELISA

B1: IgG 16485 (anti-N) (antibody, V domains shown)
VH: EVQLVESGGGLVQPGGSLRLSCAASGFNIYSSSIHWVRQAPGKGLEWVAYISSYSGYTSYADSVKGRFTISADTSKNTAYLQMNSLRAEDTAVYYCARVPWYYAYSFGFFASFGGMDYWGQGTLVTVSS
VL: DIQMTQSPSSLSASVGDRVTITCRASQSVSSAVAWYQQKPGKAPKLLIYSASSLYSGVPSRFSGSRSGTDFTLTISSLQPEDFATYYCQQYSGYHFFPITFGQGTKVEIK
B1 gave an EC50 of 19 nM.
